Measured values published in the nanobody polyreactivity screen of Harvey et al. (2022).

Test: yeast display, Sf9 membrane polyspecificity reagent, FACS + sequencing; frameworks hold sequencing errors
In short: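 Using colony PCR, genes from sorted yeast display clones were amplified, then sequenced on MiSeq at 2 × 250 and filtered by CDR length. The clones had been stained with 10% biotinylated, detergent-solubilized Sf9 membrane reagent for 1 hour at 4 °C and sorted by FACS into low and high (top ~1%) gates on anti-HA and streptavidin fluorescence. Polyreactivity labels come from the gate of origin.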

Sequence | polyreactivity (PSR sort gate)
QVQLVESGGVLVQAGGSLRLSCAASGYIFEGNAMGWYRQAPGKERDFVAAITKRGGSTYYADSVKGRFTISRDNAKNTVYLQMNSLKPEDTAVYYCAADRSYPRAGRYDYWGQVTQVTVSS | low polyreactivity
QVQLQESGGGLVQAGGSLRQSCASSGYIFPYNSMGWYRQAPGKERGLVACIAAGTTTNYADSVKGRFTISRDNAKNTVYLQMNSLKPEDAAVYYCAALNAFNTGHWYWGQGTQVTVSS | low polyreactivity
QVQLVESGGGLVQAGGSLRLSCAASGRIFDYYAMGWYRQAPGKERELVAAITVRGGTTYYADSVKGRFTISRDNAKNTVDLQMNSLKPEDTAVYYCAASDRRRYYYWGQGTQVTVSS | high polyreactivity
QVQLVESGGGLGQAGGSLRLSCAASGSIFERNAMGWYRQAPGKERELVAAISSSGVSTYYADSVKGRFTISRDNAKNTVYLQMNSLKPEDTAVYYCNAVWRLRVRYGYWGQGTQVTVSS | high polyreactivity
QVQLVESGGGLVQAGGSLRLTFAASGINLYDNVMGWYRTAPGKERELVAAISSSGTTKYYADSVKGRFTISRDYAKNTFYLQMNSLNPEDTAVYYCAADGITWYAIAYYYWGQGTQVTVSS | high polyreactivity
QVQRVESGGGLVQAGGSLRLSCAASGRIFGGYAMGWYRQAPGKERELVAGITIGGRTNYADSVKGRFTISRDNAKNTVYLQMNSLKPEDTAVYYCNTDLTGLDAEYDYWGQGTQLTVSS | low polyreactivity
QVQLVESGGGLVQAGGSLRVSCAASGRTFGPYAMGWYRQAPGKERELVAAINSGDRTYYADSVKGRFTISRDNAKNTVYLQMNSLKQEDTAVYYCNARSRRPDDYWGQGTQVTVSS | low polyreactivity
QVQLVESGGGLVQAGGSLRLSCAASGRIFGLYAMGWYRQAPGKERELVAAITRGGRTNYADSVKGRFTISRDNAKNTVYLQMNSLKPEDTAVYYCAADYRYTRGRRDYWGQGTQVTVSS | high polyreactivity
QVQLVESGGGLDQAGGSLLLSCAASGFTFGPYAMGWYRQAPGKERELVATIRSGYSTNYADSVKGRFTISRDNAKNTVYLQMNSLKPEDTAVYYFNREGWHYGPYGYWGQGTQVNVSS | low polyreactivity
QVQLVVSGGGLVQAGGRLRLSCAASGSSFVGYAMGWYRQAPGKERELVAAISRRGGSTYYADSVKGRFTISRDNAKNTVYLQMNRLKPEDTSVYYFAARFKVSYYNLYSYGYWRQGTQVTVSS | high polyreactivity
QVQLVESGGGLVQAGGSLRLSCAASGSTFANYAMGWYRQAPGKERELVAVISWGGGSTYYADSVKGRFTISRDNAKNTVYLQMNSLKPEDTAVYYCAAVYDEYQTTHEYDYWGQGTQVNVSS | low polyreactivity
QVQLVESGGGFVQSGGSLRLSCAASGITFRYYTMGWYRQPPRKERELDAVISWSGGSTYYADSVKGRFTISRDNAKNTVYLQRNSLKPEDTAVYYCAAVRRISRYDYWGQGTQVTVSS | high polyreactivity
QVQLVESGGGLVQAGGSLRLSCAASGFTFIKYAMGWYRQAPGKEREFDATISWNGGNTYYADSVKGRFTISRDKAKNTVYLQMNSLKPEDTAVYYCAARVKYRTRGGTVVSYDYWGQGTQVTVSS | high polyreactivity
QVQLVESGGGLVQAGGSLRLSCAASGFIFTYYAMGWYRQAPGKERELVAAISSRGTSTYYADSVKGRFTISRDNAKNTVYLQMNSLKPEDTAVYYCAAGKPKIPDDDYWGQGTQVTVSS | high polyreactivity
QVQLVESGGGLVQAGGSLRLSCAASGSTFAYNDMGWYRQAPGKERELVADSRSGGNTNYADSVKGRFTISRDNAKNTVYLQMNSLKREDTAVYYCATDGYRIDVFHPDYRYDYWGHGTQVTVSS | low polyreactivity
QVQLVESGGCLVQAGGSLRLSCYASGIIFAWYAMGWYRQAPGKERQLVAAISYSGCTTYYADSVKWRFTISRDNAKNTVYFKMNSLKPVDTAVYYCAALLHHFFTYDYWGQGTQVTVSS | low polyreactivity
QVQLVESGGGLLQAGGSLRLSCAASGRTFGFYTMGWYRQAPGKERELVAGISRGGSTTYADSVKGRFTISRDNAKKTVYVEMNSLKQEDTAVYYSNADRSHYWLPYGVRFDYWGLGTQVTVSS | low polyreactivity
QVQLVESGGGLVQAGRSIRLSCAASGRTFLGNSLGWYRQAPGKEMELVAAITRNGGGTYYPDSVKGRFTISRDNAKNTVYLQMNSLKPEDTAVYYCAALTSLFWRGGGLDYWGQGTQVTVSS | high polyreactivity
QVQLVESGGGLVQAGGSLRLSCAASGSLFYVYAMGWYRQAPGKERELVAAITNYADSVKGRFTISRDNAKNTVYLQMNSLKPEDTAVYYCAADWWRVEMDYWGQGSQVTVSS | low polyreactivity
QVQLVESGGGLVQAGGSLRLSCAASGFIFKYNAMGWYRQAPGKERELVAAISRSGGRTYYADSVKGRFTISRDNAKNTVSLQMNSLKPEDTAVYYCAARVGVSGFEYDYWGQGTQVTVSS | high polyreactivity
QVQIVESGGVLVQAGGSLRLSCAASGFNYTNYAMGWYIQSPGKERELVAAITYSGGSKYYADSVKGRFTISRDIAKNTVYLQMNSLKPEDTAVFFCNKYPSFYGAGYYWGQGTQVTVSS | high polyreactivity
